Data set [1] in a line: Biodistribution in mice bearing subcutaneous H69 tumor xenografts. To be noted: female, NCI Athymic NCr-nu/nu, mouse, 37 kBq, total radioactivity; for tissue uptake at 4 h: 4 h after injection, read-out: kidney percentage injected activity per gram of tissue; for tissue uptake at 2 h: 2 h after injection; for tissue uptake at 2 h / tissue uptake at 24 h: H69 xenograft mice, n = 3, read-out: tumor uptake, percentage injected activity per gram of tissue; for tissue uptake at 24 h: 24 h after injection. The class given is in vivo. The protocol: All procedures and animal studies followed a protocol approved by the National Institutes of Health Institutional Animal Care and Use Committee (protocol ROB104). Female athymic homozygous nude mice (NCI Athymic NCr-nu/nu strain 553; Charles River Laboratories), 8–10 wk old, were subcutaneously engrafted with 8 × 10^6 H69 cells in 200 μL of ice-cold phosphate-buffered saline. Treatment of tumors with radiotracers for biodistribution or therapy studies was performed once palpable tumors developed, approximately 1 mo after inoculation. […] Full experimental details for the biodistribution experiments are reported in the supplemental information.
(C) Corresponding tumor-to-tissue ratios for selected organs with lysine pretreatment. Full 12-organ biodistribution data are reported in Supplemental Figures 8–11. Error bars represent SD. ***P < 0.005. […]. %IA/g = percentage injected activity per gram of tissue.

Data set [2] can be described thus: Serum stability in human serum at 37°C by ITLC. Format: in vitro ADME. The note with it: for remaining at 240 h, 370 kBq/mL: human serum (EMD Millipore), pH 7.4, 370 kBq in 1 mL, up to 10 d, read-out ITLC, read-out: intact conjugate remaining in human serum; for stability in human serum: ITLC. The protocol:
Radiochelate was diluted to 370 kBq in 1 mL of human serum and placed on an Eppendorf ThermoMixer set to 37°C. At fixed intervals, aliquots were removed from the reactions and analyzed by ITLC as described in the supplemental information.

On the set-up of data set [3]: method as in PMID 33772332. The note with it: 148 kBq; cited from earlier work.
Details of data set [4]: method as in PMID 33772332. To be noted: cited from earlier work.
For another data set, the system named is H69 lung NET xenografts. The data set is described as follows: Head-to-head therapy study in mice engrafted with H69 cells. The class given is in vivo. The note with it: 46.3 kBq. The protocol:
Animals engrafted with H69 cells were treated with either of the 2 radioconjugates or saline (n = 8–10, each). Local control and survival were the primary outcomes. All groups were tracked for humane endpoints including, but not limited to, tumors larger than 2,000 mm^3 and weight loss greater than 20%.
FIGURE 5. […] (A) Tumor volume measurements over time. Solid lines represent average volume, and dashed lines represent 95% CI. Plots for each dataset are discontinued after first mouse death due to excessive tumor volume. Full tumor volume measurements for study duration for each mouse are reported in Supplemental Figures 15–17. (B) Maximal response to treatment (tumor volume growth percentage) of individual mice. Nonresponding mice are represented as full tumor growth (2,000% increase). (C) Mouse survival over time. Endpoint was defined as tumor volume > 2,000 mm^3 or weight loss over 20% of starting weight. (D) Average mouse body weights over time for each treatment group. Error bars represent SD. ***P < 0.005. *P < 0.05.

Data set [5] can be described thus: Dose-finding study in mice bearing H69 tumor xenografts. The class given is in vivo. To be noted: D-lysine pretreatment. An excerpt:
The promising biodistribution profile of ^225Ac-MACROPATATE led us to investigate its therapeutic efficacy. […] All mice in the 148-kBq treatment group (10/10) and 1 of 3 mice in the 92.3-kBq group were euthanized within 10 d of treatment because of substantial weight loss (>20%).

The conditions of data set [6]: 8 d; cited from earlier work. The protocol:
DOTA and its derivatives are used to chelate ^225Ac and many of the previously mentioned radionuclides. However, to chelate ^225Ac with DOTA to yield high-specific-activity radioconjugates, temperatures above 70°C are typically required. Even if these temperatures are used, the resulting complex’s thermodynamic stability ([19]) and labeling kinetics are suboptimal ([20]).

Where two headings read alike, the source gives them in different places.

These results are taken from PMC10071783 (Journal of Nuclear Medicine, 2023).

As to `C[C@@H](O)[C@H](NC(=O)[C@@H]1CSSC[C@H](NC(=O)[C@@H](Cc2ccccc2)NC(=O)CN2CCN(CC(=O)O)CCN(CC(=O)O)CCN(CC(=O)O)CC2)C(=O)N[C@@H](Cc2ccc(O)cc2)C(=O)N[C@H](Cc2c[nH]c3ccccc23)C(=O)N[C@@H](CCCCN)C(=O)N[C@@H]([C@@H](C)O)C(=O)N1)C(=O)O` [^225Ac-DOTATATE, metal not drawn, reference compound], the tissue uptake at 4 h in data set [1] (kidney, after D-lysine administration (35 mg/mouse)) amounted to 3.1 %ID/g. Moreover, in data set [1] (kidney, without D-lysine), the tissue uptake at 4 h came to 6 %ID/g. Also, in data set [1] (tumor), the tissue uptake at 2 h was 5 %ID/g and the tissue uptake at 24 h worked out at 2 %ID/g. For the same molecule, in data set [2], the fraction remaining at 240 h, 370 kBq/mL was 95% and the “stability in human serum” value is “stable to 10 d”. Further, the tolerability in mice entry in data set [3] is reported as “well tolerated”. Besides, the “intact 225Ac-DOTATATE after 10 d” value in data set [4] was 90%.

Regarding `C[C@@H](O)[C@H](NC(=O)[C@@H]1CSSC[C@H](NC(=O)[C@@H](Cc2ccccc2)NC(=S)Nc2cc(CN3CCOCCOCCN(Cc4cccc(C(=O)O)n4)CCOCCOCC3)nc(C(=O)O)c2)C(=O)N[C@@H](Cc2ccc(O)cc2)C(=O)N[C@H](Cc2c[nH]c3ccccc23)C(=O)N[C@@H](CCCCN)C(=O)N[C@@H]([C@@H](C)O)C(=O)N1)C(=O)O` [^225Ac-MACROPATATE, metal not drawn], in the data set with H69 lung NET xenografts, the “duration of initial reduction in tumor volume after treatment” value was “approximately 3 wk” and the “mice whose tumors subsequently relapsed” value was 7 of 8. The median survival in the data set with H69 lung NET xenografts (H69 xenograft mice, n = 8-10, vehicle 26 d, log rank P = 0.0006) is 55 days. Also, the “mice euthanized within 10 d of treatment because of substantial weight loss (>20%)” value in data set [5] (92.3-kBq group) is given as 1 of 3. Also, the “mice euthanized within 10 d of treatment because of substantial weight loss (>20%)” value in data set [5] (148-kBq treatment group) was 10/10. In addition, in data set [1] (in vivo), the tissue uptake at 2 h stood at 9 %ID/g and the tissue uptake at 24 h was 4 %ID/g. The tissue uptake at 4 h in data set [1] (in vivo, after D-lysine administration (35 mg/mouse)) stood at 5.2 %ID/g. The tissue uptake at 4 h in data set [1] (in vivo, without D-lysine) worked out at 11.5 %ID/g. Besides, in data set [2], the fraction remaining at 240 h, 370 kBq/mL is 98% and the “stability in human serum” value is given as “stable to 10 d”.

Turning to `O=C([O-])c1cccc(CN2CCOCCOCCN(Cc3cccc(C(=O)[O-])n3)CCOCCOCC2)n1.[225Ac+3]` [^225Ac-MACROPA], in data set [6], the “stability in C57BL6 mice compared with 225Ac-DOTA” value is reported as “comparable stability” and the “stability in human serum compared with 225Ac-DOTA” value was “comparable stability”.

As usually defined, the amount remaining is what is left of the initial amount, in per cent.
